The values below come from US20230312724A1 (KADMON, published 2023).

Where two headings read alike, the source gives them in different places.

The target in experiment [1] is T1, human B7-H4-Fc (human).
T1 construct: also called hB7-H4-Fc; hB7-H4 Fc
In words: SPR (Biacore). The protocol:
(§1) Surface plasmon resonance experiments were performed using a Biacore T200 instrument equipped with CM5 sensor chips. The system was equilibrated in running buffer HBS-EP pH 7.4. The ligands were immobilized using amine-coupling chemistry. The surfaces of flow cells one through four were activated for 5 min using an amine coupling kit at a flow rate of […]. The ligands (human B7-H4-Fc, human B7-H4-hism and mouse B7-H4-Fc; at a concentration of 5 μg/ml in 10 mM sodium acetate, pH 5.0) were immobilized at a density of 50-100 RU on flow cell 2, 3, 4 respectively. Flow cell 1 was left blank to serve as a reference surface. All flow cell surfaces were blocked with a 5 min injection of 1 M ethanolamine, pH 8.0. To collect kinetic binding data, the respective analyte (diluted in 1×HBS-EP buffer, pH 7.4) was injected over the four flow cells at concentrations of 100 nM to 0.1 nM at a flow rate of […] and at a temperature of 25° C. The protein complex was allowed to associate and dissociate for 180 seconds and 1000 or 1200 seconds, respectively. The surfaces were regenerated with a 30 second injection of 1.5 M NaCl/0.05 M NaOH. The data were fit to a simple 1:1 interaction model using the Langmuir fit option available within the Biaevaluaton software
(§2) The kinetics for binding of the different antibodies to their targets were examined using Biacore analysis.
A general note: In SPR one partner is held on a chip, and binding of the other changes the refractive index at the surface.

The target in experiment [2] is T2, mouse B7-H4-his (mouse, UniProt Q7TSP5 25-257).
T2 construct: also called mB7-H4-his; mB7-H4-His; not shown: his tag
T2 sequence: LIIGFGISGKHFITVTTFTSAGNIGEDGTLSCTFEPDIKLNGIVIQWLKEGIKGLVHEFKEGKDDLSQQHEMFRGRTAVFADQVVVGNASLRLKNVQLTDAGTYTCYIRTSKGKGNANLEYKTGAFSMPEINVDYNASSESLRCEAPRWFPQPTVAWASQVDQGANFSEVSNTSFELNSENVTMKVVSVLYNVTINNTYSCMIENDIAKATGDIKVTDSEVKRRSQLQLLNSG
In words: SPR (Biacore). Here is the method:
as §1, §2

The target in experiment [3] is T3, human B7-H4-his (human, UniProt Q7Z7D3 25-259).
T3 construct: also called hB7-H4-his; hB7-H4 his; not shown: his tag
T3 sequence: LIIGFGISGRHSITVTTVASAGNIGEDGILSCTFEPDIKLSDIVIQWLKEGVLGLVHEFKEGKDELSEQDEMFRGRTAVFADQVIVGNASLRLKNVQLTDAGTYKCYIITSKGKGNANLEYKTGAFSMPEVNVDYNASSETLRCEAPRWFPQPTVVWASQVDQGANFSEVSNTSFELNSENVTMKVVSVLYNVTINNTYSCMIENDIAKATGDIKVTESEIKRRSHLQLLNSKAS
In words: SPR (Biacore). Here is the method: as §1, §2

The target in experiment [4] is T4, mB7-H4 (soluble mouse B7-H4, construct not named) (mouse, UniProt Q7TSP5 25-257, limits assumed).
T4 sequence: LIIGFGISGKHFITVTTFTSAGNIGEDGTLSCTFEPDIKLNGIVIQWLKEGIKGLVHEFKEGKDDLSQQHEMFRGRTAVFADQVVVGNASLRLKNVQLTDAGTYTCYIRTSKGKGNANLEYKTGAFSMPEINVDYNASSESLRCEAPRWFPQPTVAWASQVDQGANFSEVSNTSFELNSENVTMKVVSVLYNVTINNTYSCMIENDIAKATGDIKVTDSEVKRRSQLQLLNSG
Put plainly: summary of ELISA and flow cytometry. In general terms: In an ELISA, binding on a coated surface is turned into a signal by an enzyme label.

Experiment [5] has as its target T5, mouse B7-H4-Fc (mouse; human).
T5 construct: also called mB7-H4-Fc; mB7-H4-hFc
In words: ELISA, coated mB7-H4-Fc (title on the sheet: Binding to mB7H4-Fc). The protocol:
(§3) ELISA experiments were performed to determine binding to hB7-H4-Fc (FIG. 4A), hB7-H4-his (FIG. 4B), hB7-H4 IgV domain (FIG. 4C), and mB7-H4 IgV domain (FIG. 4D). Flow cytrometry experiments were performed to determine binding to CHO cells expressing hB7-H4 (FIG. 4E) or mB7-H4 (FIG. 4F). […] A cross-reactive IgV binding antibody was used as a control.
(§4) About 1-2 μg/ml of human or mouse B7-H4-Fc (or his-tagged) was immobilized on ELISA plates (Immuno 2HB, Thermo scientific, cat #3455) at 4° C. overnight. After blocking the plates with 3% PBS+milk, serial diluted antibodies were added to the blocked plates and incubated at RT for 1-1.5 h. After washing the plates with PBS-T (0.05%), horse radish peroxidase (HRP)-conjugated antibody targeting the hFab was added to the plate. Signals were developed by adding 3,3′,5,5′-Tetramethylbenzidine (TMB (followed 1N of H₂SO₄ to stop the reaction. The OD at 450 nm was read by ELISA plate reader (Infinite M1000 from TECAN). GraphPad from Prism was used to plot OD450 vs. antibody concentration curve and to calculate the EC50 values.

The target in experiment [6] is T6, IgV domain of mouse B7-H4-Fc (mouse; human).
T6 construct: also called mB7-H4 IgV domain
T6 sequence (chain, as listed by the source): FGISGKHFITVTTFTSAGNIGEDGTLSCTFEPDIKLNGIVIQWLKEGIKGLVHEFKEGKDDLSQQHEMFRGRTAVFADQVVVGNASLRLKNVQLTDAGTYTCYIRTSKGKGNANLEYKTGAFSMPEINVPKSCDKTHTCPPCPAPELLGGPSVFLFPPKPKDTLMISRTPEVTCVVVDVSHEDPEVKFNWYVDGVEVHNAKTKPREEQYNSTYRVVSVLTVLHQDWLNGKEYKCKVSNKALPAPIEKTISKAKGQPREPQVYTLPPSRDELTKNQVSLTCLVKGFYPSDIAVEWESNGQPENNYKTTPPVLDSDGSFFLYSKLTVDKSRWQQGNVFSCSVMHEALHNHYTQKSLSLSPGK
In words: ELISA, coated mB7-H4 IgV domain. The protocol:
as §3, §4

Experiment [7] addresses T1, human B7-H4-Fc. In words: ELISA, coated hB7-H4-Fc. Here is the method: as §3, §4
Experiment [8] addresses T5, mouse B7-H4-Fc. Put plainly: ELISA, coated mB7-H4-Fc. Here is the method:
as §4

Experiment [9] addresses T1, human B7-H4-Fc. In words: ELISA, coated hB7-H4-Fc. The protocol: as §4
The source holds these as a separate data set.

Experiment [10] concerns the target T6, IgV domain of mouse B7-H4-Fc. In words: ELISA, coated mB7-H4 IgV domain. Here is the method: as §4
This is another data set of the same source.

Experiment [11] has as its target T2, mouse B7-H4-his. In words: SPR (Biacore). This is another data set of the same source.
In experiment [12] the target is T5, mouse B7-H4-Fc. In words: SPR (Biacore).
Experiment [13] has as its target T7, IgV domain of human B7-H4-Fc (human).
T7 construct: also called hB7-H4 IgV domain
Put plainly: ELISA, coated hB7-H4 IgV domain. The protocol:
as §4

For experiment [14], the target named is T8, mouse B7-H4 expressed on cells (mouse, UniProt Q7TSP5 25-257).
T8 construct: also called cellular mB7-H4; mB7-H4/CT26
T8 sequence: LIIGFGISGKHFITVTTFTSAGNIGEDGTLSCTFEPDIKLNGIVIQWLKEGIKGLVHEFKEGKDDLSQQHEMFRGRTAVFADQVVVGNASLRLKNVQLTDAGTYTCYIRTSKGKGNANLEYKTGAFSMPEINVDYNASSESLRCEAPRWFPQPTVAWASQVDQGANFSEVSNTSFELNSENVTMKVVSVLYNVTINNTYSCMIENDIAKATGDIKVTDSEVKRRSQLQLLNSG
In words: flow cytometry, CHO cells expressing mB7-H4. Here is the method:
(§5) ELISA experiments were performed to determine binding to hB7-H4-Fc (FIG. 3A), hB7-H4-his (FIG. 3B), mB7-H4-Fc (FIG. 3C), and hB7-H4 IgV domain (FIG. 3D). Flow cytometry experiments were performed to determine binding to CHO cells expressing hB7-H4 (FIG. 3E) or mB7-H4 (FIG. 3F).
Cells were harvested, washed once, and then re-suspended to the concentration of 1×10⁶ cells/ml in ice cold FACS Buffer. 25 μl of cell suspension was added to each well of a 96-well round-bottom microliter plate. Serially diluted antibodies or fusion proteins were added to each well and incubated for 1 hour at 4° C. Cells were washed three times by centrifugation at 1500 rpm for 5 minutes, and then stained with secondary antibody (1:200 dilution) for 30 min at 4° C. in the dark. Cells were washed once, re-suspended in 100 μl PBS buffer and then analyzed using Guava Flow Cytometry EasyCyte system.
(In flow cytometry, cells or beads pass a laser one at a time.)

Experiment [15] deals with T5, mouse B7-H4-Fc. Put plainly: ELISA, coated mB7-H4-Fc. Here is the method:
as §5, §4
This is another data set of the same source.

T5 sequence (chain, as listed by the source): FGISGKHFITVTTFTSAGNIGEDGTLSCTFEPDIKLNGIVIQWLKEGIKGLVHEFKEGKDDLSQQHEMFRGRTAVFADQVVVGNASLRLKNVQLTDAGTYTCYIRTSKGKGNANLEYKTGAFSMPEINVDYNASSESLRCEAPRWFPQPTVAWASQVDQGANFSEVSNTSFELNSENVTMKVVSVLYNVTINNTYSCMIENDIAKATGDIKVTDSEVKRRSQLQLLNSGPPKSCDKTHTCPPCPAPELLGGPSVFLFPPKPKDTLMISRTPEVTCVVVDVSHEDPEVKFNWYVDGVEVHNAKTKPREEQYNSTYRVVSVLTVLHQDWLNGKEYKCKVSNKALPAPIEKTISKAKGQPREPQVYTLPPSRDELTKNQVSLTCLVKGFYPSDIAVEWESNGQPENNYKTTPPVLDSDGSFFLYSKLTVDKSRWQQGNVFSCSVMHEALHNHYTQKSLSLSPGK
T1 sequence (chain, as listed by the source): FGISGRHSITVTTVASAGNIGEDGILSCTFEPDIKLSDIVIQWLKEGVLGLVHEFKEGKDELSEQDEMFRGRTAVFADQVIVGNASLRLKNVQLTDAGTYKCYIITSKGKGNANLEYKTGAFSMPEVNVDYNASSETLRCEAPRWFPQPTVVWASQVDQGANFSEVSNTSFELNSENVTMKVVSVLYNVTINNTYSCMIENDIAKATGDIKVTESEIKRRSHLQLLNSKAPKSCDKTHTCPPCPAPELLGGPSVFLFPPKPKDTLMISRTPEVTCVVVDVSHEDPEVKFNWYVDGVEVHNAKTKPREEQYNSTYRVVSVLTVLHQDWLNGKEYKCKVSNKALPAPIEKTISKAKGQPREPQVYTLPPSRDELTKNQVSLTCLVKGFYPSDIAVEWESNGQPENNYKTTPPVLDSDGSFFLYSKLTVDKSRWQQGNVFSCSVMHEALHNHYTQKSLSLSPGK
T7 sequence (chain, as listed by the source): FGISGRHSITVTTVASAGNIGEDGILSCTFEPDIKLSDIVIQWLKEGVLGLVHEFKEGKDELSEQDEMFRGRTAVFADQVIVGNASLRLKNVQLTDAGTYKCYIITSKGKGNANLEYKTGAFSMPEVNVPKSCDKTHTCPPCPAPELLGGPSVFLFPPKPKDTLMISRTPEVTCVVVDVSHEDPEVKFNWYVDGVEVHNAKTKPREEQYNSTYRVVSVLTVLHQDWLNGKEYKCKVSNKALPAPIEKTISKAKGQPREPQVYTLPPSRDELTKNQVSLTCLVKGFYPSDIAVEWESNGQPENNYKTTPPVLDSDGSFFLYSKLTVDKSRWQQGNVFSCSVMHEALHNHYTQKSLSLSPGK

B1: 3D1/3D1 (antibody, human IgG1, V domains shown)
VH: QVQLVQSGAEVKKPGSSVKVSCKASGYSFISYAITWVRQAPGQGLEWIGGINPIFGTAKYAQKFQGRVTITADESTSTAYMELSSLRSEDTAVYYCAKGQALIQHWGQGTLVTVSS
VL: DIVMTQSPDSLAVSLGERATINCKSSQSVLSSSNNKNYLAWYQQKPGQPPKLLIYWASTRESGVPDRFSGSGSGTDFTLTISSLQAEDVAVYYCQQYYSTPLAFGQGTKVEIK
For B1, the dissociation constant (Kd) (usually the free concentration of one partner at which half of the binding sites on the other are occupied at equilibrium, for simple one-to-one binding) was determined as 2.23 nM in experiment [1] and 28.5 nM in experiment [3]. Further, the binding result is “no binding” in [2], “no binding” in experiment [4], “no binding (tested: log 0.3 ug/ml (about 2 ug/ml))” in experiment [5] and “no binding” in experiment [6]. Moreover, the half-maximal effective concentration (EC50 (read off the curve)) – broadly, the concentration that produces a half-maximal response – in experiment [7] was roughly 0.009 µg/mL.

B2: 5E4/5E4 (antibody, human IgG1, V domains shown)
VH: QVQLVQSGAEVKKPGASVKVSCKASGYTFTSYDINWVRQAPGQGLEWMGWMNPNSGNTGYAQKFQGRVTMTRDTSTSTVYMELSSLRSEDTAVYYCARGELWFGEFDYYYYYGMDVWGQGTTVTVSS
VL: DIQMTQSPSSLSASVGDRVTITCRASQSISSYLNWYQQKPGKAPKLLIYGASSLQSGVPSRFSGSGSGTDFTLTISSLQPEDFATYYCQQADRIPFTFGRGTKVEIK
Turning to B2, the dissociation constant Kd in [1] is 11.7 nM; in [3] it was 10 nM; in experiment [11], 9.09 nM; in [12] it was 14.1 nM. In addition, the “EC50 (read off the curve)” value in [8] and in [9] was roughly 0.1 nM each time. In addition, the binding result in experiment [10] and in experiment [13] was “no binding (tested: 20 nM)” throughout.

B3: 1A12/1A12 (antibody, human IgG1, V domains shown)
VH: EVQLLESGGGLVKPGGSLRLSCAASGFTFSSYAMHWVRQAPGKGLEWVAVISYDGSNKYYADSVKGRFTISRDDSKNTLYLQMNSLKTEDTAVYYCARHGWDAFDIWGQGTLVTVSS
VL: DIQMTQSPSSLSASVGDRVTITCRASQDISNRLNWYQQKPGKAPKLLIYLASSLQGGVPSRFSGSGSGTDFTLTISSLQPEDFATYYCQQAISFPLTFGGGTKVEIK
Take B3: the values for the Kd in experiment [1] and in experiment [3] were 3.57 nM and 2.47 nM, respectively. Also, the binding result is listed as “no binding” in experiment [2], “no binding” in experiment [4], “no binding (tested: axis value -7 (log scale labelled nM))” in experiment [14] and “no binding (tested: axis value -8 (log scale labelled nM))” in experiment [15].

B4: 6C3/6C3 (antibody, human IgG1, V domains shown)
VH: EVQLLESGGGLVQPGGSLRLSCAASGFTFSSYAMHWVRQAPGKGLEWVASISGTGFTTRYADSVKGRFTISRDNSKNTLYLQMNSLRAEDTAVYYCARGGWFRDTPVDYWGQGTLVTVSS
VL: DIVMTQSPLSLPVTPGEPASISCRSSQSLLHSNGYNYLDWYLQKPGQSPQLLIYGASSLRSGVPDRFSGSGSGTDFTLKISRVEAZDVGVYYCMQASHWPPTFGQGTRLEIK
notes: The VL holds a letter Z
For B4, the figures for the equilibrium dissociation constant (Kd) in experiment [1] and in experiment [3] were 10.9 nM and 6.3 nM, respectively. Further, the binding result is “no binding” in experiment [2]; “no binding” in experiment [4]; “no binding (tested: log 0.3 ug/ml (about 2 ug/ml))” in experiment [5]; “no binding (tested: axis value -7 (log scale labelled nM))” in [14]; “no binding” in experiment [6]. In addition, in [7], the “EC50 (read off the curve)” value was roughly 0.03 µg/mL.

B5: 1F11/1F11 (antibody, human IgG1, V domains shown)
VH: QVQLVQSGAEVKKPGSSVKVSCKASGDTFTTYQIHWVRQAPGQGLEWMGGIMPIFGTTKYAQNFQGRVTITADESTSTAYMELSSLRSEDTAVYYCARRNYGMDVWGQGTTVTVSS
VL: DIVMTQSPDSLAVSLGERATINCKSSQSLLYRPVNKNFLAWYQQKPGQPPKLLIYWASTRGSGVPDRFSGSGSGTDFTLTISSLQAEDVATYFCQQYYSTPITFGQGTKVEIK
Turning to B5, the figures for the dissociation constant Kd in experiment [1] and in [3] were 1.66 nM and 1.11 nM, respectively. Moreover, the binding result in experiment [2] was “no binding”; in [4], “no binding”; in experiment [14], “no binding (tested: axis value -7 (log scale labelled nM))”; in experiment [15] it was “no binding (tested: axis value -8 (log scale labelled nM))”.
